One assay relates to pig pKal. Briefly: Kallikrein activity in activated citrated plasma, pig. The assay is classed as biochemical. An excerpt: (§1) All available sequence of pKal were obtained from public databases and aligned using ClustalW and regions were highlighted based on solvent accessibility, contact with an active site Kunitz inhibitor, and those peptides identified by CLIPS analysis (FIGS. 9A-9C). Citrated plasma from each of these species was obtained and activated using a commercially available prekallikrein activator (from Enzyme Research Laboratories) according to the instructions of the manufacturer. Kallikrein activity was then measured in each of the samples in the presence or absence of […]-B01.

The target of assay [1] is T1, pKal (Homo sapiens, UniProt P03952).
T1 construct: two disulfide linked polypeptides; a heavy chain of approximately 52 kDa and a catalytic domain of approximately 34 kDa; host or cells: human plasma
Briefly: Inhibition of pKal in presence of prekallikrein. It is filed as biochemical. Conditions: IgG; Table 14.

Assay [2] deals with T1, pKal. Briefly: Competition for binding with aprotinin. Conditions: IgG; Table 14. An excerpt: The region of pKal bound by selected anti-pKal antibodies was investigated using several methods. First, competition assays were used to determine whether the antibodies competed for binding to pKal with known active site-directed inhibitors. Second, antibodies were grouped according to whether they were inhibitors or just binders to pKal. Third, epitopes were investigated using synthetic peptides and peptidic structures based on the sequence and 3-dimensional structure of pKal. These peptidic structures are called “CLIPS” (Chemically Linked Peptides on Scaffolds) and the testing was performed by a fee for service company called Pepscan.

The target of the next assay is T2, mouse pKal (Mus musculus, UniProt P26262).
T2 construct: active plasma kallikrein (pkal) has the single polypeptide chain cleaved at a single position
The experiment in a line: Ki,app against mouse pKal. It is filed as biochemical. How it is done: (§2) Fourth, antibodies were tested for their ability to inhibit pKal from other species, besides human, where the amino acid sequence of pKal has been determined in order to identify amino acids that may account for the differences in inhibition.
Antibodies that inhibit the activity of pKal either bind near the active site and preclude substrate interactions (competitive inhibitors) or that bind away from the active site and induce allosteric changes in the structure of the active site (noncompetitive inhibitors).

In the next assay the target is T3, rat pKal (Rattus norvegicus, UniProt P14272).
T3 construct: active plasma kallikrein (pkal) has the single polypeptide chain cleaved at a single position
Briefly: Ki,app against rat pKal. The assay is classed as biochemical. Conditions: IgG, Table 14, read-out: < nM Ki, app against rodent pKal. How it is done:
as §2

The test system of assay [3] is pKal from different species. The experiment in a line: Kallikrein activity in activated citrated plasma of different species. The assay is classed as biochemical. Conditions: all the species except for pig.
From the text: as §1

The subject of assay [4] is fXIa, plasmin, and trypsin. Briefly: Specificity with respect to other serine proteases. It is filed as biochemical. Conditions: IgG; Table 14.
Assay [5] addresses T4, human plasma kallikrein (human pKal) (Homo sapiens, UniProt P03952).
T4 construct: two disulfide linked polypeptides; a heavy chain of approximately 52 kDa and a catalytic domain of approximately 34 kDa; host or cells: human plasma
The experiment in a line: Ki,app against human pKal by steady state enzyme kinetics (in vitro protease cleavage assay, Pro-Phe-Arg-aminomethylcoumarin substrate). It is filed as biochemical. An excerpt:
The inhibition constant (Ki) provides a measure of inhibitor potency; it is the concentration of inhibitor required to reduce enzyme activity by half and is not dependent on enzyme or substrate concentrations. The apparent Ki (Ki,app) is obtained at different substrate concentrations by measuring the inhibitory effect of different concentrations of inhibitor (e.g., inhibitory binding protein) on the extent of the reaction (e.g., enzyme activity); fitting the change in pseudo-first order rate constant as a function of inhibitor concentration to the Morrison equation (Equation 1) yields an estimate of the apparent Ki value. The Ki is obtained from the y-intercept extracted from a linear regression analysis of a plot of Ki,app versus substrate concentration.
Where v=measured velocity; v0=velocity in the absence of inhibitor; Ki,app=apparent inhibition constant; I=total inhibitor concentration; and E=total enzyme concentration.
The sequence of human plasma kallikrein that was used in selections and subsequent screening of binding proteins is shown below (accession number NP_000883.2). The human plasma kallikrein (86 kDa) that was used was purified from human plasma and activated with factor XIIa by a commercial vendor. Factor XIIa activates prekallikrein by cleaving the polypeptide sequence at a single site (between Arg371-Ile372, cleavage site marked by “/” in the sequence below) to generate active plasma kallikrein, which then consists of two disulfide linked polypeptides; a heavy chain of approximately 52 kDa and a catalytic domain of approximately 34 kDa [Colman and Schmaier, (1997) “Contact System: A Vascular Biology Modulator With Anticoagulant, Profibrinolytic, Antiadhesive, and Proinflammatory Attributes” Blood, 90, 3819-3843]
These antibodies were produced as Fab fragments in small scale (˜20 μg) and tested for inhibition against human pKal in an in vitro protease cleavage assay using Pro-Phe-Arg-aminomethylcoumarin as the synthetic peptide substrate. […] Five antibodies were then expressed in 293T cells and purified by protein A sepharose chromatography. The antibodies were analyzed by SDS-PAGE to determine which of the inhibitory mutants are not cleaved by the host cell protease(s) (data not shown).

Assay [6] deals with T4, human plasma kallikrein (human pKal). The description is as above. The assay is classed as biochemical. Conditions: IgG.
Another assay deals with frog pKal. Briefly: Kallikrein activity in activated citrated plasma, frog. The assay is classed as biochemical.
From the text: as §1

Another assay has as its system bradykinin generation. The experiment in a line: Inhibition of bradykinin generation. It is filed as biochemical. Conditions: IgG; Table 14.
Assay [7] concerns the target T1, pKal. The experiment in a line: BIACORE SPR competition with EPI-KAL2 for binding pKal. Conditions: IgG captured on chip, pKal 100 nM, 1 μM EPI-KAL2. The protocol: FIG. 7A depicts the EPI-KAL2 competition for X81-B01 binding pKal. X81-B01 (IgG) was captured on an anti-human Fc fragment specific surface of a CM5 BIACORE® chip. pKal (100 nM) was flowed over the surface in the presence (lower sensorgram in the figure) or absence of 1 μM EPI-KAL2 (upper sensorgram in the figure).
FIG. 7B depicts the EPI-KAL2 competition for X67-D03 binding pKal. X67-D03 (IgG) was captured on an anti-human Fc fragment specific surface of a CM5 Biacore chip. pKal (100 nM) was flowed over the surface in the presence (lower sensorgram in the figure) or absence of 1 μM EPI-KAL2 (upper sensorgram in the figure).
Using a BIACORE® SPR assay antibodies of interest were tested for competion with a known active site inhibitor of pKal. EPI-KAL2 is potent (Ki,app=0.1 nM) active site inhibitor of pKal and a Kunitz domain inhibitor based on the first domain of tissue factor pathway inhibitor (Markland (1996) Iterative optimization of high-affinity protease inhibitors using phage display. 2. Plasma kallikrein and thrombin, Biochemistry 35(24):8058-67). Kunitz domains are known active site inhibitors of serine proteases, such as pKal.
As shown in FIGS. 7A-7B, the antibodies X81-B01 and X67-D03 were competed for binding to pKal in the presence or EPI-KAL2.
(SPR reads the build-up and loss of mass on a sensor chip optically.)

For another assay, the target named is prekallikrein (Homo sapiens, UniProt P03952). The experiment in a line: Surface plasmon resonance (SPR) assay for binding to prekallikrein. Conditions: IgG; Table 14. The protocol:
Antibodies that bound prekallikrein may be rendered inaccessible towards active plasma kallikrein inhibition and could substantially increase the in vivo dose required for efficacy. […] Specifically, human IgGs (X81-B01, M162-A04 (R84-H05); M160-G12 (R84-D02); and M142-H08) were captured on a CM5 chip using an anti-human Fc surface and 100 nM of plasma kallikrein or 100 nM or 500 nM prekallikrein. The prekallikrein was treated with aprotinin-sepharose to remove active plasma kallikrein.

Where two headings read alike, the source gives them in different places.

T4 sequence (P03952 391-638 limits assumed): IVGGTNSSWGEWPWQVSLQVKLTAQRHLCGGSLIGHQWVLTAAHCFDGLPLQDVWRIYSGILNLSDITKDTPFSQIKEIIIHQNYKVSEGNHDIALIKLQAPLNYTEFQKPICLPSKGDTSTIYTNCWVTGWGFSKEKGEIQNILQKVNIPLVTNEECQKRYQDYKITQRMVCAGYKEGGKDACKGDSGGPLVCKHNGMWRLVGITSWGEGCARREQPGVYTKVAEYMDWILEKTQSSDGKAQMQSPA
T4 sequence (P03952 20-390 partner limits assumed): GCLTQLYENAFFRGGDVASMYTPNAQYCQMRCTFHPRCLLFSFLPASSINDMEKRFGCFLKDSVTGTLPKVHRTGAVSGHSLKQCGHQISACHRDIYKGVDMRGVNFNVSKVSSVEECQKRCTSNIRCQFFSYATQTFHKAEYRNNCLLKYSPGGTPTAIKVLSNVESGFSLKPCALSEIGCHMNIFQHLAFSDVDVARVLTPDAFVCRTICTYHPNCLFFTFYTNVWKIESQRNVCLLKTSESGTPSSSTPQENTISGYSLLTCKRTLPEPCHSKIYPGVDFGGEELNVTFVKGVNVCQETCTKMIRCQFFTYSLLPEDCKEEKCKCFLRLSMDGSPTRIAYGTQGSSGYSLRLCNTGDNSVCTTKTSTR
T1 sequence (P03952 391-638 limits assumed): as the sequence (P03952 391-638 limits assumed) above
T1 sequence (P03952 20-390 partner limits assumed): as the sequence (P03952 20-390 partner limits assumed) above
T2 sequence (P26262 391-638 limits assumed): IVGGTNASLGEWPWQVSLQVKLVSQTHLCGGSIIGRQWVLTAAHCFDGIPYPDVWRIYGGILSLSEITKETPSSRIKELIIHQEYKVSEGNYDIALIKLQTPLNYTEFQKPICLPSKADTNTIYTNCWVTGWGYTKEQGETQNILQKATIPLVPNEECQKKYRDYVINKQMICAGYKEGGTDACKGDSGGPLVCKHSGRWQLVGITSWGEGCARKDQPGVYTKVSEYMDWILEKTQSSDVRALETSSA
T2 sequence (P26262 20-390 partner limits assumed): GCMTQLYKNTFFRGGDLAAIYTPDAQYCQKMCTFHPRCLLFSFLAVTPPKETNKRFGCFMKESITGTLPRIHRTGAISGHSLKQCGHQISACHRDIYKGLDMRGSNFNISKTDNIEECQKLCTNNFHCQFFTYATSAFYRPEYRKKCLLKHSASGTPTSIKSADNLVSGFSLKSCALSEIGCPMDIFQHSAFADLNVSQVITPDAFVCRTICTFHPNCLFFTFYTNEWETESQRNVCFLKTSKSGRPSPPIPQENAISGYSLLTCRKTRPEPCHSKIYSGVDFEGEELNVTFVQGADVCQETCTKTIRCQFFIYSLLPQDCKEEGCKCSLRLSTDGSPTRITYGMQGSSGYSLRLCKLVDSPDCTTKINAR
Chain of prekallikrein (P03952 20-638): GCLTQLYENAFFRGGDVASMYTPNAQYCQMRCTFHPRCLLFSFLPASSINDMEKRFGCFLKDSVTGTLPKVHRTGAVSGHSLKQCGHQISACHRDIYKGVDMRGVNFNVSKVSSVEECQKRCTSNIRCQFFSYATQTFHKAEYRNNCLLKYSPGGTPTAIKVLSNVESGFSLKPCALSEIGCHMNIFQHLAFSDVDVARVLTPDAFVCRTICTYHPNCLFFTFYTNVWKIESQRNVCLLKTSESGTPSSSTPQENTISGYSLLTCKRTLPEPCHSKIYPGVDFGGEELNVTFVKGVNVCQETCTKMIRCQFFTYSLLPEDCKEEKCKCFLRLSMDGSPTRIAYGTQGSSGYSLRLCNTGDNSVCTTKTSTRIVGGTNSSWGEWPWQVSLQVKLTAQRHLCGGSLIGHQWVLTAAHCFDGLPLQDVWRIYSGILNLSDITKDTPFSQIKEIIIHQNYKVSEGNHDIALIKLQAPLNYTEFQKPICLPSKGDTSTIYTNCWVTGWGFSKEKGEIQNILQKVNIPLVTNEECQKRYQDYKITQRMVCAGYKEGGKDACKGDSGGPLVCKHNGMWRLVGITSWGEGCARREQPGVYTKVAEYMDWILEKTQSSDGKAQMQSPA
Chain of pig pKal (as listed by the source): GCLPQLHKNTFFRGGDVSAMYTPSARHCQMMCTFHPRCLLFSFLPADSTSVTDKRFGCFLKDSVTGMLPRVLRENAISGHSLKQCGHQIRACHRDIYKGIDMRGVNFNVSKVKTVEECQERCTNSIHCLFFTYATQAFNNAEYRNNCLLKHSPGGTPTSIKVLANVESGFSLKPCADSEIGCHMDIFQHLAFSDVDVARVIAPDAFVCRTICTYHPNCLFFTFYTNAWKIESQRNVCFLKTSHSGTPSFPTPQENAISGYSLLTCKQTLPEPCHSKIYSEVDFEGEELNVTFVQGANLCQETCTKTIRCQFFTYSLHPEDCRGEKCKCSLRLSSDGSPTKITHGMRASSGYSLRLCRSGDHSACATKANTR
Chain of pig pKal (as listed by the source): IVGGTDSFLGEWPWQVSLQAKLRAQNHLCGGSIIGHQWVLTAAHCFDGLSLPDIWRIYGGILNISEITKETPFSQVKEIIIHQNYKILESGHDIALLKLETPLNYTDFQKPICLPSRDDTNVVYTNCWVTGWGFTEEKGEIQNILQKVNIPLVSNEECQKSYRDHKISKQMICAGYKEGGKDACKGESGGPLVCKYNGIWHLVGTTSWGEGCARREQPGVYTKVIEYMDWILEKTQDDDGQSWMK
T3 sequence (P14272 391-638 limits assumed): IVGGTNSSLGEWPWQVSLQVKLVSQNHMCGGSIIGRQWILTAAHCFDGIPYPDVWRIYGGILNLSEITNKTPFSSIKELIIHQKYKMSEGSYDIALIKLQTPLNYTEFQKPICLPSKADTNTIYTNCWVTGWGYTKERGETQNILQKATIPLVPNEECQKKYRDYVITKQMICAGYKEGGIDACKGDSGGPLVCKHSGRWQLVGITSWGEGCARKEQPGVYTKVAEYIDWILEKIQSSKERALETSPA
T3 sequence (P14272 20-390 partner limits assumed): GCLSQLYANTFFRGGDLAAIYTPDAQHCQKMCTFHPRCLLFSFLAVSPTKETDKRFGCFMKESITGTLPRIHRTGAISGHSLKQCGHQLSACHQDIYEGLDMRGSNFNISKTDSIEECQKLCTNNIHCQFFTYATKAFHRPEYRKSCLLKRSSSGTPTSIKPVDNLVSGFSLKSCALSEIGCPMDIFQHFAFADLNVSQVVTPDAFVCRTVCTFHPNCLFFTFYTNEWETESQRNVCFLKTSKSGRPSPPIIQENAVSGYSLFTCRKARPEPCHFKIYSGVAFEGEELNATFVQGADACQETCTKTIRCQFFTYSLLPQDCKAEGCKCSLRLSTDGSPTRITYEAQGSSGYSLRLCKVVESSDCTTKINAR

B1: X81-B01: codon optimized and germlined version of X63-G06 as a full length human IgG produced in CHO cells (antibody, chains of the INN, looked up, V domains shown)
VH: EVQLLESGGGLVQPGGSLRLSCAASGFTFSHYIMMWVRQAPGKGLEWVSGIYSSGGITVYADSVKGRFTISRDNSKNTLYLQMNSLRAEDTAVYYCAYRRIGVPRRDEFDIWGQGTMVTVSS
VL: DIQMTQSPSTLSASVGDRVTITCRASQSISSWLAWYQQKPGKAPKLLIYKASTLESGVPSRFSGSGSGTEFTLTISSLQPDDFATYYCQQYNTYWTFGQGTKVEIK
modifications: IgG
notes: codon optimized and germlined version of X63-G06 as a full length human IgG produced in CHO cells
On to B1, for which, in the assay with pig pKal, the “inhibition of pig pKal” value is “lack of inhibition”. The “Inhibits pKal in presence of prekallikrein” value with pKal [1] is “yes”. Besides, the “Competition for binding with aprotinin” value with pKal [2] was “yes”. Besides, the Ki came out at 0.011 nM with mouse pKal (mouse, IgG, Table 14, read-out: < nM Ki, app against rodent pKal); 0.14 nM with rat pKal; 0.2 nM in assay [5] (Table 6, read-out: Human pKal (Ki, app nM)); 0.1 nM in assay [5] (Table 15, read-out: human Ki, app); 0.2 nM in assay [6] (Table 11, read-out: Ki, app); 0.2 nM in assay [6] (Table 14, read-out: < nM Ki, app against human pKal). Moreover, in assay [6] (pKal, germlined and sequence optimized for CHO cell expression, read-out: Ki,app), the Ki is about 0.2 nM. Moreover, the “inhibition of pKal from different species” value in [3] was “inhibited”. The “Specific inhibitor with respect to fXIa, plasmin, and trypsin” value in [4] was “yes”. Moreover, in the assay with frog pKal, the “inhibition of frog pKal” value is recorded as “inhibited”. Besides, the Inhibits bradykinin generation result with bradykinin generation is on record as “yes”. In addition, the “competition for binding to pKal in the presence of EPI-KAL2” value in the assay with pKal [7] is “competed”. Moreover, the “Does not bind prekallikrein” value in the assay with prekallikrein is “no”.

B2: M29-D09: antibody inhibitor of pKal; HV-CDR3 GSYDYIWGFYSDH (antibody, V domains shown)
VL: QSALTQPPTVSVSPGQTARITCSGNKLGDKYVAWYQQKPGQSPMLVIYQDTKRPSAIPERFSGSNSANTATLSISGTQALDEADYYCQAWDSSIVIFGGGTRLTVL
VH: EVQLLESGGGLVQPGGSLRLSCAASGFTFSWYTMVWVRQAPGKGLEWVSYIYPSGGATFYADSVKGRFTISRDNSKNTLYLQMNSLRAEDTAVYYCAMGSYDYIWGFYSDHWGQGTLVTVSSASTKGPSVFPLAPSSKS
In the case of B2, in the assay with mouse pKal (Table 15), the “mouse Ki, app (nM)” value is “no”.

For the origin of these results see patent US20100183625A1, “Treatment of Mucositis with Kallikrein Inhibitors” (Dyax Corp., priority 2009, published 2010).
